These results are taken from patent US20220125947A1 (published 2022).

Positions count from the first letter of the chain named.

To fix the notation:
B1: VG9B182 (antibody, human IgG1, lambda, V domains shown)
VH: QVQLVESGPGLVKPSETLSLTCTVSGDSINNHFWSWIRQPPGKGLEWIGFVFYNGNTNYNPSLKSRVTISIDTSKSQFSLKLTSVTAADTAVYYCARVGRWVLRTAFDIWGQGTMVTVSS
VL: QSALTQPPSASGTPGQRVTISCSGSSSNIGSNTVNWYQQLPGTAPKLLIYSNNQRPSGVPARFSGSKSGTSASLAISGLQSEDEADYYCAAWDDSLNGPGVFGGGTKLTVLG
notes: also called antibody #76
B2: VG9B159 (antibody, human IgG1, lambda, V domains shown)
VH: EVQLVQSGPGLVKPSETLSLTCTVSGGSISSYYWSWIRQPAGKGLEWIGRFYTGGRNNYNPSFKSRVTMSVDTSQNQFSLKLSSVTAADTAVYYCARDMEYYYDRSGYSYWYFDLWGRGTTVTVSS
VL: SYELMQPPSVSVAPGQTARITCGGNNIGSKSVHWYQQKPGQAPVLVVYDDSDRPSGIPERFSGSNSGNTATLTISRVEAGDEADYYCQVWDSSSDHVVFGGGTKLTVLG
notes: also called antibody #73
B3: VG9B201 (antibody, human IgG1, lambda, V domains shown)
VH: QVTLKESGPTLVKPTQTLTLTCTFSGFSLTTHGVGVGWIRQPPRKALEWLALIYWNADKHYSPSLKSRLTITKDTSKNQVVLTMTHMDPVDTATYYCAHEGDWGHYFDFWGQGTLVTVSS
VL: QLVLTQPPSVSAAPGQKVTISCSGSSSNIGNNDVSWYQQLPGTAPKLLIYDNNRRPSGIPDRFSGSKSGTSATLGITGLQTGDEADYYCETWDSSLSAIWVFGGGTKVTVLG
notes: also called antibody #65
B4: VG9B470 (antibody, human IgG1, kappa, V domains shown)
VH: QVTLKESGPTLVKPTQTLTLTCTFSGFSLTTSGVGVGWIRQPPGKALEWLALILWNDHTIYSPSLKSRLTITKDTSKNQVVLTMTNMDPVDTAAYFCARDKWELRDAFDIWGQGTMVTVSS
VL: EIVMTQSPSFLSASVGDRVTFTCRASQGISRYLAWYQQKPGRAPNLLIYVASTLQSGVPSRFSGSGSGTEFTLTISSLLPEDFATYYCQQLISYPYTFSQGTRLEIKR
notes: also called antibody #61
B5: VG9B129 (antibody, human IgG1, kappa, V domains shown)
VH: EVQLVQSGAEVKKPGSSVKVSCKASGGTFSSYVISWVRQAPGQGLEWMGGILPILSTANYAQKFQGRVTITADKSTSTAYMELSSLRSEDTAVYYCARAHDYYYGMDVWGQGTTVTVSS
VL: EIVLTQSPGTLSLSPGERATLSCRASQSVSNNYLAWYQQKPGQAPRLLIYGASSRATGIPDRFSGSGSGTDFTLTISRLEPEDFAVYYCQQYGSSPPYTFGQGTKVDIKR
notes: also called antibody #59
B6: VG9B169 (antibody, human IgG1, lambda, V domains shown)
VH: EVQLLESGPGLVKPSETLSLTCSVSGGSITNYFWNWIRQPPGKGLEWIGYIFYSGSTSYNPSLKSRVTISVDTSKNRFSLKLISVTAADTAVYYCARVGRWELRTAFDIWGQGTMVTVSS
VL: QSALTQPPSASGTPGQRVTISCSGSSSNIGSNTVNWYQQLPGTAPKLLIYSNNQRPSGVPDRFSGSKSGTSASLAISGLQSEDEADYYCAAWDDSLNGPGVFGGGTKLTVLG
notes: also called antibody #63
B7: VG9B86 (antibody, human IgG1, kappa, V domains shown)
VH: QVQLQESGPGLVKPSETLSLTCTVSGDSISSSYWSWIRQPAGKGLECIGRFYSSGSTSYNPSLKSRVTMAIDTSKNQFSLKLTSVTAADTAVYYCARYSGSYWYFDLWGRGTTVTVSS
VL: EIVLTQSPATLSLSPGERATLSCRASQSVSSYLAWYQQRPGQAPRLLIYDTSNRATGIPARFSGSGSGTDFTLTISSLAPEDFAVYYCQQRSDWLLTFGGGTKVEIKR
notes: also called antibody #71
B8: VG9B156 (antibody, human IgG1, lambda, V domains shown)
VH: QVQLQESGPGLMKPSETLSLTCTVSNGSISGYFWNWIRQPPGKGLEWIGYIFYSGSTNYNPSLKSRVTISVDTSKNLVSLKLNSVTAADTAVYFCAKLGKWELRTAFDIWGQGTMVTVSS
VL: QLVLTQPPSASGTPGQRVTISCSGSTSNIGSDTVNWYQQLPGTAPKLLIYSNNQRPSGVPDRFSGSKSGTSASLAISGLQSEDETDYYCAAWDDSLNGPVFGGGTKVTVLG
notes: also called antibody #69
B9: VG9B205 (antibody, human IgG1, lambda, V domains shown)
VH: B8 VH with Q5V, E6Q
VL: not shown
notes: also called antibody #70
B10: VG9B194 (antibody, human IgG1, lambda, V domains shown)
VH: EVQLLESGAEVKKPGASVKVSCKASGYTFTGDYMHWVRQAPGQGLEWMGWINPNSGYTNNAEKFQGRVTMTRDTSISTAYMELSRLSSDDTAVYYCTRELDALDVWGQGTMVTVSS
VL: QSVLTQPPSASGSPGQSVTISCTGTSSDVGGYNYVSWYQQHPGKAPKLMIYEVSKRPSGVPDRFSGSKSGNTASLTVSGLQAEDEADYYCNSYAGSNNFEVFGGGTKVTVLG
notes: also called antibody #75
B11: VG9B383 (antibody, human IgG1, lambda, V domains shown)
VH: QVQLQESGPGLVKPSETLSLTCTVSSGSISSYYWNWIRQPAGKGLEWVGRIYTIGNTNYNPSLKSRVTMSIDTSKNQFSLNLSSVTAADTAVYFCAREGYYDSSGSFFPGAFGIWGQGTMVTVSS
VL: SSELTQPASVSGSPGQSITISCTGTSNDVGSYNLVSWYQQHPGKAPKLMIYAGSKRPSGISNRFSGSKSGNTASLTISGLQAEDEADYYCCSFAGATNVVFGGGTKLTVLG
notes: also called antibody #67
B12: VG9B465 (antibody, human IgG1, lambda, V domains shown)
VH: QVQLQQSGPGLVKPSETLSLTCTVSGGSITSYYWNWIRQPAGKGLEWIGRIYTIGNTNYNPSLKSRVTMSIDTSKHQFSLKLSSVTGADTAVYYCAREGYYESDGSFFPGAFNIWGQGTMVTVSS
VL: B11 VL with F93Y, A96T, L107V
notes: also called antibody #74
B13: VG9B111 (antibody, human IgG1, kappa, V domains shown)
VH: QVQLLESGGGLVKPGGSLRLSCAASGFTFSTYSVNWVRQAPGKGLEWVSSISSDSSYIFYADSMKGRFTISRDNAKNSLYLHMNSLRAEDTAVYYCARDSVTGPFDYWGQGTLVTVSS
VL: DIVMTQSPSSLSASVGDRVTITCQASQDISHYLNWYQQKPGKAPKLLIYDSYILETGVTSRFSGSGSGTDFTFTINSLQPEDIAIYYCQQYDNLPYTFGQGTKVEIKR
notes: also called antibody #62
B14: VG9B639 (antibody, human IgG1, kappa, V domains shown)
VH: QVQLVQSGGGLVKPGGSLRLSCAASGFTFTTYRMNWVRQAPGKGLEWVSSISSSSIYIHSADSVKGRFTISRDNAKNSLYLQMNSLRAEDSAIYYCARERVYTVSFDYWGQGTLVTVSS
VL: B13 VL with V3Q
notes: also called antibody #64
B15: VG9B161 (antibody, human IgG1, lambda, V domains shown)
VH: QVQLQESGPGLVKPSETLSLTCTVSGGSISSYFWSWIRQPPGKGLEWIGYIFYSGSTNYNPSLKSRVTILVDTSKNHFSLKLSSVTAADTAVYYCARVGRWELRGAFDIWGQGTMVTVSS
VL: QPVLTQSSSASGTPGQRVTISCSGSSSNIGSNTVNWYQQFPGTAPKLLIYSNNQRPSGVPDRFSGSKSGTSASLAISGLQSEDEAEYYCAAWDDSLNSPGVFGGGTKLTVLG
notes: also called antibody #66
B16: VG9B154 (antibody, human IgG1, lambda, V domains shown)
VH: B15 VH with S31Y, S35N, F52Y, L70S, V71L, H77Q, V98E, R100K, G105T, A106T
VL: not shown
notes: also called antibody #72
B17: VG9B173 (antibody, human IgG1, lambda, V domains shown)
VH: B15 VH with S30N, S31N, F52Y, L70S, D72V, K75M, H77Q, V98E, R100K, G105S
VL: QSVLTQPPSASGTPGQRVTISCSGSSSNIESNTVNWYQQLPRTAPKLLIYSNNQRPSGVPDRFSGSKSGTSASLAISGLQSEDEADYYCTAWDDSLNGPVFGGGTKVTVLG
notes: also called antibody #77
B18: VG9B396 (antibody, human IgG1, lambda, V domains shown)
VH: EVQLVESGPGLVQPSETLSLTCTVSGDSIRGYYWNWIRQPAGKGLEWIGRIFTTGNTNYNPSLKSRLTMSLDTSKNQFSLKLNSVTAADTAVYYCAREKWDSSSSALYFDFWGQGTLVTVSS
VL: QSVLTQAPSVSGAPGQRVTISCTGSSSNIGADYDVKWYQQLPGTAPKLLIYGNTDRPSGVPDRFSGSKSGTSASLAITGLQAEDEADYYCQSYDSRLTGYVVFGGGTKLTVLG
notes: also called antibody #60
B19: VG9B382 (antibody, human IgG1, lambda, V domains shown)
VH: QVQLQESGPGLVKPSETLSLTCTVSGDSISGYYWNYIRQPAGKGLDWIGRIFTTGNTNYNPSLKSRVTMSVDTSKNQFSLKLTSVTAADTAVYYCARERWDSSSSALYFDYWGQGTLVTVSS
VL: B18 VL with A7P, V35I, T54S, D55N, A73V, R96S, L97M, T98S
notes: also called antibody #68
B20: VG9B208 (antibody, human IgG1, lambda, V domains shown)
VH: QVQLQESGPGLVKPSETLSLTCTVSGGSISGYYWSWIRQPPGKGLELIGYIFYSGSINYNPSLKNRVTISLDTSKNQFSLKLTSVTAADTAVYYCARVGKWELRSSFDIWGQGTMVTVSS
VL: QSVLTQPPSVSAAPGQKVTISCSGSTSNIGNNDVSWYQQLPGTAPKLLIYDNNKRPSGIPDRFSGSKSGTSATLGITGLQTGDEADYYCGTWDSSLSVWVFGGGTKLTVLG
notes: IgG1, lambda
B21: VG9B372 (antibody, human IgG1, kappa, V domains shown)
VH: QVQLQESGPGLVKPSQTLSLTCTVSGGSISNGGFYWSWIRQHPGKGLEWLGYINYSGSTYYNPSLESRGTISLDTSKNQFSLKLRSVTAADTAVYYCARDRNYEWNFDLWGRGTLVTVSS
VL: EIVMTQSPATLSLSPGEGATLSCRASQSVSSYLAWYQQKPGQAPRLLVYDASNRATGIPARFSGSGSGTAFTLTITSLEPEDFVVYYCQQRSNWPLTFGGGTKLEIKR
notes: IgG1, kappa
B22: VG9B87 (antibody, human IgG1, kappa, V domains shown)
VH: QVQLVESGAEVKKPGASVKVSCKASGYTFTSEYIHWVRQAPGQGLEWMGIINPSGGSTSYAQRFQGRVTMTRDTSTSTVYMEVNSLRSEDTAVYYCARERGYSYGSFDYWGQGTLVTVSS
VL: EIVLTQSPSFLSASAGDRVTITCRASQGISSYLAWYQQKPEKAPKLLIYAASTLQSGVPSRFSGSGSGTEFTLTISSLQPEDFATYYCQQFNSYSLTFGGGTKLEIKR
notes: IgG1, kappa

One experiment deals with T1, γδ T cell receptor on human γδ T cells (human).
T1 construct: also called AG000003021 (γδ T cells)
Briefly: flow cytometry, dose-response (DRC) binding at 37°C on human γδ T cells. On the procedure: (§1) Binding of antibodies to human γδ T cells or SKW cell lines expressing Vγ9/Vδ2, Vγ9/Vδ2 or Vγ5/Vδ2 was carried out by flow cytometry. Briefly, the cells were centrifuged at 300×g for 5 minutes and the pellet was resuspended in 34 ml fresh media (in RPMI+10% FBS). 50 μL of the cells were then plated (44K cells/well) into assay plates. Samples were incubated for one hour at 37° C. in tissue culture (TC) incubator followed by wash steps by adding 100 μl FACS staining buffer. Secondary detention antibodies (A647 conjugated anti-human IgG Fc specific antibody (2 μg/mL) along with AF488 anti mouse CD3, clone OKT3 at 1 ug/mL) were added at 50 μL/well to appropriate wells according to the plate map. After incubating for 60 minutes at 37° C. in the TC incubator, cells were again washed as described above. This is followed by resuspension in 20 μL/well running buffer containing 1:1000 dilution of Sytox blue dead cell stain and the plates were run on iQue Screener.
(§2) Gating and data analysis: Human anti-human Vγ9 antibody (VG9B2 mAb at 10 nM) was used to mark the gating of positive population. All cells were first gated for singlets on SCS-A vs. SCS-H dot plot, live/dead followed by CD3 positive population, and this subset of CD3 positive population was gated for Vγ9 positive binding using positive control mAb. Cells were also assessed for cell binding of control mAbs by RL1 (A647) Geomeans from the live cell population. Advanced metrics were used and normalization metrics were chosen to calculate fold over background wells containing secondary antibody alone (designated as ‘background’ within ForeCyt settings).
As to B1, the “Max. Activity” value was 2370 fold over background.

Turning to B2, the “Max. Activity” value came to 2510 fold over background. Same read-out and setting: then B3, with 3170 fold over background; and B4, with 4270 fold over background; and B5, with 271 fold over background. With B6, the “Max. Activity” value came to 3250 fold over background. On to B7, for which the “Max. Activity” value was found to be 2670 fold over background.

On to B8, for which the “Max. Activity” value is 2700 fold over background. Still for that read-out and setting: the figure for B9 is 2690 fold over background. For B10, the “Max. Activity” value turned out to be 2470 fold over background. Consider B11, for which the “Max. Activity” value is 2780 fold over background. Take B12: the “Max. Activity” value is 2500 fold over background. B13: the “Max. Activity” value worked out at 3430 fold over background. The same measure, in the same setting: the figure for B14 is 3240 fold over background; for B15 it is 2820 fold over background; for B16 it is 2590 fold over background.

Take B17: the “Max. Activity” value was found to be 2360 fold over background. With B18, the “Max. Activity” value amounted to 4540 fold over background. Consider B19, for which the “Max. Activity” value came out at 2780 fold over background.

A further experiment concerns the target T2, gamma-delta T cell receptor on human γδ T cells (human).
T2 construct: also called AG000003021 (γδ T cells)
Briefly: flow cytometry, dose-response binding at 37 C, human γδ T cells. On the procedure: as §1, §2
For orientation: A flow cytometer gives signals particle by particle.
For the molecule B20, the “Max. Activity” value is 2310 fold over background.

Consider B21, for which the “Max. Activity” value was 2290 fold over background. For B22, the “Max. Activity” value was determined as 2330 fold over background.
